The record followed here is patent publication US20230331820A1 (GlaxoSmithKline, published 2023).

Where two headings read alike, the source gives them in different places.

In assay [1] the target is T1, gEgI WT: HSV2 gEgI heterodimer comprising gE and gI wildtype ectodomains (HSV2, UniProt P89475 21-416; P06764 21-256). As to the kind of experiment: SPR binning; gEgI captured by mAb 5.
Assay [2] addresses T1, gEgI WT: HSV2 gEgI heterodimer …. As to the kind of experiment: SPR binning; gEgI captured by mAb 20.
Assay [3] has the same target. Nature of the assay: SPR binning; gEgI captured by mAb 45.
Assay [4] has the same target. Nature of the assay: SPR binning; gEgI captured by mAb 17.
The target is the same in assay [5]. As to the kind of experiment: SPR binning; gEgI captured by mAb 9.
The target is the same in assay [6]. Nature of the assay: SPR binning; gEgI captured by mAb 10.
For assay [7] the target is unchanged. As to the kind of experiment: SPR binning; gEgI captured by mAb 42.
Assay [8] has as its target T2, gI WT: HSV2 gI wildtype ectodomain (HSV2, UniProt P06764 21-256). Nature of the assay: ELISA, supernatant. In general terms: An ELISA detects its analyte on a solid surface through an enzyme-linked reagent.
Assay [9] concerns the target T3, gE WT: HSV2 gE wildtype ectodomain (HSV2, UniProt P89475 21-416). Nature of the assay: ELISA, supernatant.
Assay [10] addresses T1, gEgI WT: HSV2 gEgI heterodimer …. Nature of the assay: SPR binning; gEgI captured by mAb 24.
For assay [11] the target is unchanged. Nature of the assay: SPR binning; gEgI captured by mAb 19.
Assay [12] concerns the target gEgI mutant (338): HSV2 gEgI mutant heterodimer comprising gE and gI ectodomains with insertion of a (HSV2, UniProt P89475 21-416; P06764 21-256). As to the kind of experiment: ELISA, supernatant.
The target of assay [13] is T1, gEgI WT: HSV2 gEgI heterodimer …. As to the kind of experiment: SPR binning; gEgI captured by mAb 40.
The target is the same in assay [14]. As to the kind of experiment: SPR binning; gEgI captured by mAb 34.
The target is the same in assay [15]. Nature of the assay: SPR binning; gEgI captured by mAb 39.
Assay [16] has the same target. As to the kind of experiment: SPR binning; gEgI captured by mAb 15.
Assay [17] shares this target. As to the kind of experiment: ELISA, supernatant.
Assay [18] deals with gEgI mutant (P319D): HSV2 gEgI mutant heterodimer comprising gE and gI ectodomains with mutation P319D in gE (HSV2, UniProt P89475 21-416; P06764 21-256). As to the kind of experiment: ELISA, supernatant.
In assay [19] the target is T4, gEgI mutant (P317R): HSV2 gEgI mutant heterodimer comprising gE and gI ectodomains with mutation P317R in gE (HSV2, UniProt P89475 21-416; P06764 21-256). As to the kind of experiment: ELISA, supernatant.
Assay [20] addresses gEgI mutant (R320D): HSV2 gEgI mutant heterodimer comprising gE and gI ectodomains with mutation R320D in gE (HSV2, UniProt P89475 21-416; P06764 21-256). As to the kind of experiment: ELISA, supernatant.
Assay [21] has as its target T3, gE WT: HSV2 gE wildtype ectodomain. Nature of the assay: ELISA, supernatant. The source holds these as a separate data set.
Assay [22] has as its target T1, gEgI WT: HSV2 gEgI heterodimer …. Nature of the assay: Biacore SPR, gEgI HEK BMP1063 at 10 µg/ml for 180 s over the mAb. For orientation: Surface plasmon resonance follows binding to a sensor surface in real time, without labels.
The target in assay [23] is T4, gEgI mutant (P317R): HSV2 gEgI mutant …. Nature of the assay: SPR single-cycle kinetics, mAb captured on RAM; gEgI mutant batch 2.
The target is the same in assay [24]. As to the kind of experiment: SPR single-cycle kinetics, mAb captured on RAM; gEgI mutant batch 1.
For assay [25], the target named is T1, gEgI WT: HSV2 gEgI heterodimer …. Nature of the assay: Biacore SPR, gEgI CHO BMP1181 at 10 µg/ml for 180 s over the mAb.
Assay [26] shares this target. Nature of the assay: SPR single-cycle kinetics, mAb captured on RAM, gEgI as analyte, 1:1 model.
Assay [27] addresses T2, gI WT: HSV2 gI wildtype ectodomain. As to the kind of experiment: ELISA, supernatant. The source holds these as a separate data set.

B1: mAb clone 40 (antibody, V domains shown)
VH: QIQLVQSGPELKKPGETVKISCKASGYTFTNYGMNWVKQAPGKGLKWMGWINTYTGEPTYADDFKGRFAFSLETSASTAYLQINNLKNEDTATYFCARSLYGYDEGYFDVWGAGTTVTVSS
VL: DIQMTQSPASLSASVGETVTITCRASGNIHNYLAWYQQKQGKSPQLLVYNAKTLADGVPSRFSGSGSGTQYSLKINSLQPEDFGSYYCQHFWSTPYTFGGGTKLEIK
Regarding B1, the RU came out at 9 RU in assay [1]; 10 RU in assay [2]; 7.3 RU in assay [3]; 8.8 RU in assay [4]; 8.8 RU in [5]; 9.8 RU in assay [6]. The RU in [7] stood at 7.4 RU; in assay [10] it was 7.6 RU; in [11] it was 6.4 RU; in assay [13] it was 2.6 RU; in [14] it was 5.2 RU; in assay [15], 9 RU. For the same molecule, the RU in [16] is -0.4 RU. Besides, the figures for the binding result in [8], in [9] and in assay [12] were “no binding”, “no binding” and “binds”, respectively.

B2: mAb clone 41 (antibody, V domains shown)
VH: QVQLQQSGAELVRPGTSVKVSCKASGYAFTNYLIEWVKQRPGQGLEWIGVINPGSGGTNYNEKFKGKATLTADKSSSTAYMQLSSLTSDDSAVYFCARSGLRRDYYAMDYWGQGTSVTVSS
VL: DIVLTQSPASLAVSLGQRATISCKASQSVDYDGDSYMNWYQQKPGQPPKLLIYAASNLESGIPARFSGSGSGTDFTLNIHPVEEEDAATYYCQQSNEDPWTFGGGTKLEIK
Regarding B2, the binding result in [8], in assay [17], in assay [12], in assay [18], in [19] and in assay [20] was “binds” each time. The binding result in [21] was “no binding”.

B3: mAb clone 37 (antibody, V domains shown)
VH: EVQLQQSGPELVKPGASVKISCKASGYTFTDYNMHWVKQSHGKSLEWIGYIYPYNGGTGYNQKFKTKATLTVDNSSSTAYMELRSLTSEDSAVYYCAIPGYYYAMDYWGQGTSVTVSS
VL: DIVLTQSPASLAVSLGQRATISCRASKSVSTSGYSYMHWYQQKPGQPPKLLIYLASNLESGVPARFSGSGSGTDFTLNIHPVEEEDASTYYCHHSRELPRTFGGGTKLEIK
On to B3, for which the binding result in [8] is on record as “no binding”; in assay [17], “binds”; in [9] it was “binds”; in [12] it was “binds”; in assay [18], “binds”; in assay [19], “binds”. The binding result in [20] is listed as “binds”.

B4: mAb clone 12, 13 (antibody, V domains shown)
VH: QVQLKESGPGLVAPSQSLSITCTVSGFSLTSYGVHWVRQPPGKGLEWLGVIWAGGSTNYNSALMSRLSISKDNSKSQVFLKMNSLQTDDTAMYFCARGGITSLHNYVMDYWGQGTSVTVSS
VL: DIVLTQSPASLAVSLGQRATISCRASESVEYYGTSLMQWYQQKPGQPPKLLIYAASNVESGVPARFSGSGSGTHFSLNIHPVEEDDIAMYFCQQSRKVPSTFGGGTKLEIK
notes: also called mAb 12; mAb12
B4: the “RU Ag/250 RU mAbs” value worked out at 108 RU Ag/250 RU mAbs in [22] and 112 RU Ag/250 RU mAbs in assay [25]. The dissociation constant Kd (in general, the concentration at which binding is half-saturated) in assay [23] worked out at 11.5 nM; in [24], 7.68 nM; in [26], 6.89 nM. Further, the koff (commonly a measure of how fast the partners let go of each other) in [23] worked out at 0.00324 s⁻¹; in [24], 0.00325 s⁻¹; in assay [26] it was 0.00197 s⁻¹. Also, the kon – broadly, the second-order rate constant of association – in [23] was 280000 M⁻¹ s⁻¹; in assay [24], 422000 M⁻¹ s⁻¹; in assay [26], 285000 M⁻¹ s⁻¹. Moreover, the figures for the binding result in assay [8] and in assay [12] were “no binding” and “binds”, respectively.

B5: mAb clone 39 (antibody, V domains shown)
VH: EVKLVESGGGLVQPGGSLKLSCAASGFTFSSYTMSWVRQTPEKRLEWVAYISNGGGSTYYPDTVKGRFTISRDNAKNTLYLQMSSLKSEDTAMYYCARGVSYYGDLYYFDYWGQGTTLTVSS
VL: DVVVTQTPLSLPVSFGDQVSISCRSSQSLANSYGNTYLSWYLHKPGQSPQLLIYGISNRFSGVPDRFSGSGSGTDFTLKISTIKPEDLGMYYCLQGTHQPWTFGGGTKLEIK
Turning to B5, the RU in assay [1] is 0.6 RU; in [2], 3.1 RU; in assay [3] it was -5.4 RU; in assay [4], -0.6 RU; in [5], -1.5 RU; in [6], 2.3 RU. The RU in assay [7] is 0.1 RU; in assay [10] it was -0.9 RU; in assay [11] it was -7.2 RU; in assay [13], -1.2 RU; in assay [14], -6.4 RU; in assay [15], 1.3 RU. The molecule further yielded an RU in [16] of -4.8 RU. For the same molecule, the binding result is listed as “no binding” in [8], “no binding” in assay [9] and “binds” in assay [12].

B6: mAb clone 48 (antibody, V domains shown)
VH: QVTLKESGPGILQPSQTLSLTCSFSGFSLSTSGMGVSWIRQPSGKGLEWLAHIYWDDDKRYNPSLKSRLTISKDTSSNQVFLKITSVDTADTATYYCARRGFYYRYDGGRRYYYAMDYWGQGTSVTVSS
VL: DILLTQSPAILSVSPGERVSFSCRASQSIGTSIHWYQQGTNGSPRLLIKFASESISGIPSRFSGSGSGTDFTLSINSVESEDIADYYCQQSNSWPLTFGAGTKLELK
On to B6, for which the binding result in [17] is recorded as “binds”; in assay [9], “binds”; in assay [27], “no binding”; in [12] it was “binds”; in [18], “binds”; in [19], “binds”. Further, in [20], the binding result was “binds”.
